Data from US20250043302A1, “MUTATED HYDROXYPHENYLPYRUVATE DIOXYGENASE POLYPEPTIDE, AND CODING GENE AND USE THEREOF” (BEIJING DABEINONG BIOTECHNOLOGY CO., LTD., priority 2021, published 2025).

Columns and labels:
Format in all cases: in vivo
soybean T1 plants [1] = test: Topramezone tolerance of transgenic soybean T1 plants; details: different concentrations
Experimental: T1 transformants were initially selected from the untransformed seeds using a glufosinate selection scheme. […] The degree of damage caused by the herbicide was measured for each plant according to the proportion of bleached leaf area (the proportion of bleached leaf area=bleached leaf area/total leaf area×100%) 7 days after spraying (7 DAT): the case where there is basically no bleached phenotype is defined as grade 0, the case where the proportion of bleached leaf area is less than 50% is defined as grade 1, the case where the proportion of bleached leaf area is more than 50% is defined as grade 2, and the case where the proportion of bleached leaf area is 100% grade is defined as grade 3.
The soybean T1 plants into which the SbHPPD-02 nucleotide sequence was introduced, soybean T1 plants into which the SbHPPDm-F372A-02 nucleotide sequence was introduced, soybean T1 plants into which the SbHPPDm-F383W-02 nucleotide sequence was introduced, soybean T1 plants into which the SbHPPDm-F372A-F383W-02 nucleotide sequence was introduced, soybean T1 plants into which the control vector DBN11726N nucleotide sequence was introduced, and wild-type soybean plants (V3-V4 at seedling stage) were sprayed with topramezone at three different concentrations (i.e., 25 g ai/ha (one-fold field concentration, 1×). […] According to the method in point 6 of Example 1, after 7 days of spraying (7 DAT), the damage degree of each plant by the herbicide was statistically analyzed, and the scoring and resistance evaluation were carried out accordingly. […]

soybean T1 plants [2] = test: Isoxaflutole tolerance of transgenic soybean T1 plants; details: different concentrations
[3] = tested on: Arabidopsis thaliana T1 plants; test: Topramezone tolerance of transgenic Arabidopsis thaliana T1 plants (spray, bleached leaf area grade, damage score); details: 7 DAT, Table 4; for Classification and statistics of the grade of pesticide damage: Grade 0 / Classification and statistics of the grade of pesticide damage: Grade 1 / Classification and statistics of the grade of pesticide damage: Grade 2 / Classification and statistics of the grade of pesticide damage: Grade 3: number of plants; for Scores: pesticide damage score 0-100
Procedure, shortened: (§1)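 T1 transformants selected by glufosinate; 18-day-old plants, with empty-vector and wild-type controls, sprayed with topramezone (25–200 g ai/ha), isoxaflutole (35–280 g ai/ha) or mesotrione (52.5–420 g ai/ha), water as 0×. Bleached leaf area fraction scored at 7 DAT as grades 0–3.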

[4] = tested on: Arabidopsis thaliana T1 plants; test: Isoxaflutole tolerance of transgenic Arabidopsis thaliana T1 plants (spray, bleached leaf area grade, damage score); set-up: Scores (pesticide damage): scale not given here; details: spray, Arabidopsis thaliana T1 plants; for Classification and statistics of the grade of pesticide damage: Grade 0 (number of plants) / Classification and statistics of the grade of pesticide damage: Grade 1 (number of plants) / Classification and statistics of the grade of pesticide damage: Grade 2 (number of plants) / Classification and statistics of the grade of pesticide damage: Grade 3 (number of plants): 16 plants
Procedure, shortened: as §1

soybean T1 plants [5] = test: Mesotrione tolerance of transgenic soybean T1 plants; details: different concentrations
[6] = tested on: Arabidopsis thaliana T1 plants; test: Mesotrione tolerance of transgenic Arabidopsis thaliana T1 plants (spray, bleached leaf area grade, damage score); set-up: Scores: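 damage score 0-100 computed as Σ(N×S)/(T×M)×100 over grades 0-3 with higher meaning more damage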; details: Arabidopsis thaliana T1 plants; for Grade 0 (classification and statistics of the grade of pesticide damage; number of plants) / Grade 1 (classification and statistics of the grade of pesticide damage; number of plants) / Grade 2 (classification and statistics of the grade of pesticide damage; number of plants) / Grade 3 (classification and statistics of the grade of pesticide damage; number of plants): 16 plants
Procedure, shortened: as §1

[7] = isoxaflutole 35 g ai/ha (0.5x field concentration)
[8] = isoxaflutole 70 g ai/ha (1x field concentration)

B1: SbHPPDm-F372A-F383W-02: nucleotide sequence encoding Sorghum bicolor HPPD with F372A+F383W; vector DBN11761 (nucleic acid)
DNA: ATGCCGCCCACTCCAACAACTGCTGCTGCGACGGGAGCAGCTGTCGCCGCTGCTTCTGCTGAGCAGGCTGCCTTCAGGCTCGTCGGGCACAGAAATTTTGTTCGTGTAAATCCAAGGAGTGATAGGTTCCACACCTTGGCTTTTCACCACGTGGAGTTGTGGTGTGCTGATGCAGCCTCGGCAGCGGGGCGCTTCTCGTTTGGTCTCGGTGCTCCGCTCGCCGCAAGATCTGATCTTAGCACTGGAAACACAGCGCATGCCTCCCTGCTCCTGCGCTCTGGCGCGCTGGCGTTCCTCTTCACGGCGCCATATGCTCACGGCGCCGACGCCGCCACCGCGTCATTGCCGTCTTTTAGTGCAGCCGAAGCAAGAAGATTTGCAGCAGACCACGGCCTCGCCGTAAGGGCCGTGGCCTTACGTGTCGCCGATGCCGAAGATGCTTTCCGCGCCTCTGTAGCAGCTGGAGCAAGGCCAGCATTTGAACCTGTTGAATTGGGGTTAGGATTCCGTCTTGCAGAAGTTGAGCTTTATGGCGACGTTGTTTTGAGATACGTTTCATATCCTGATGACGCTGACGCTAGCTTCTTGCCTGGTTTTGTGGGGGTGACATCACCTGGGGCAGCAGATTATGGTCTCAGGCGGTTTGATCATATTGTTGGAAACGTTCCTGAACTCGCGCCGGCGGCAGCCTACTTCGCCGGTTTCACTGGGTTTCATGAATTTGCTGAATTCACAGCCGAGGATGTCGGCACCACCGAGAGTGGACTGAACTCCATGGTGCTGGCCAACAATGCAGAGAATGTCCTTCTTCCCTTGAATGAACCAGTTCATGGAACAAAAAGGCGTTCCCAAATACAAACATACCTCGACCATCATGGTGGACCAGGCGTTCAGCATATGGCTCTCGCTAGTGACGATGTTCTACGAACCCTGCGAGAGATGCAGGCGCGGTCTGCAATGGGAGGATTTGAGTTCATGGCACCTCCTGCCCCTGAATATTATGATGGTGTTCGGAGAAGGGCAGGTGATGTGCTAACTGAAGCTCAAATCAAGGAGTGCCAGGAGCTTGGCGTGCTGGTCGATCGGGATGATCAAGGTGTGCTTCTGCAGATTGCCACTAAACCAGTGGGTGACCGCCCCACGCTGTGGCTAGAGATCATCCAGAGAATAGGGTGCATGGAGAAGGACGAAAAAGGACAAGAGTACCAGAAGGGAGGTTGTGGCGGCTTTGGAAAAGGGAACTTCTCCCAATTATTCAAGTCAATTGAAGACTATGAAAAGAGTTTGGAGGCTAAGCAAGCTGCAGCCGCCCAGGGCAGCTGA
modifications: SbHPPDm-F372A-F383W-02 Nucleotide Sequence
notes: vector DBN11761
tolerance to HPPD-inhibitor herbicides (in words): topramezone (soybean T1 plants [1]): different degrees of tolerance | tolerance to HPPD-inhibitor herbicides (in words): isoxaflutole (soybean T1 plants [2]): different degrees of tolerance | Classification and statistics of the grade of pesticide damage: Grade 0 ([3]; topramezone 25 g ai/ha (1×)): 16 | Classification and statistics of the grade of pesticide damage: Grade 1 ([3]; topramezone 25 g ai/ha (1×)): 0 | Classification and statistics of the grade of pesticide damage: Grade 2 ([3]; topramezone 25 g ai/ha (1×)): 0 | Classification and statistics of the grade of pesticide damage: Grade 3 ([3]; topramezone 25 g ai/ha (1×)): 0 | Classification and statistics of the grade of pesticide damage: Grade 0 ([3]; topramezone 100 g ai/ha (4×)): 9 | Classification and statistics of the grade of pesticide damage: Grade 1 ([3]; topramezone 100 g ai/ha (4×)): 7 | Classification and statistics of the grade of pesticide damage: Grade 2 ([3]; topramezone 100 g ai/ha (4×)): 0 | Classification and statistics of the grade of pesticide damage: Grade 3 ([3]; topramezone 100 g ai/ha (4×)): 0 | Scores ([3]; topramezone 25 g ai/ha (1×)): 0 | Scores ([3]; topramezone 100 g ai/ha (4×)): 15 | Resistance evaluation ([3]; topramezone 25 g ai/ha (1×)): highly | Resistance evaluation ([3]; topramezone 100 g ai/ha (4×)): highly | Resistance evaluation [4, 7]: Highly | Scores (pesticide damage) [4, 7]: 8 | Classification and statistics of the grade of pesticide damage: Grade 0 (number of plants) [4, 7]: 12 | Classification and statistics of the grade of pesticide damage: Grade 1 (number of plants) [4, 7]: 4 | Classification and statistics of the grade of pesticide damage: Grade 2 (number of plants) [4, 7]: 0 | Classification and statistics of the grade of pesticide damage: Grade 3 (number of plants) [4, 7]: 0 | Resistance evaluation [4, 8]: Highly | Scores (pesticide damage) [4, 8]: 13 | Classification and statistics of the grade of pesticide damage: Grade 0 (number of plants) [4, 8]: 10 | Classification and statistics of the grade of pesticide damage: Grade 1 (number of plants) [4, 8]: 6 | Classification and statistics of the grade of pesticide damage: Grade 2 (number of plants) [4, 8]: 0 | Classification and statistics of the grade of pesticide damage: Grade 3 (number of plants) [4, 8]: 0 | tolerance to HPPD-inhibitor herbicides (in words): mesotrione (soybean T1 plants [5]): different degrees of tolerance | Resistance evaluation ([6]; mesotrione 52.5 g ai/ha): Highly resistant | Scores ([6]; mesotrione 52.5 g ai/ha): 13 | Grade 0 (classification and statistics of the grade of pesticide damage; number of plants) ([6]; mesotrione 52.5 g ai/ha): 10 | Grade 1 (classification and statistics of the grade of pesticide damage; number of plants) ([6]; mesotrione 52.5 g ai/ha): 6 | Grade 2 (classification and statistics of the grade of pesticide damage; number of plants) ([6]; mesotrione 52.5 g ai/ha): 0 | Grade 3 (classification and statistics of the grade of pesticide damage; number of plants) ([6]; mesotrione 52.5 g ai/ha): 0 | Resistance evaluation ([6]; mesotrione 105 g ai/ha): Poorly resistant | Scores ([6]; mesotrione 105 g ai/ha): 38 | Grade 0 (classification and statistics of the grade of pesticide damage; number of plants) ([6]; mesotrione 105 g ai/ha): 0 | Grade 1 (classification and statistics of the grade of pesticide damage; number of plants) ([6]; mesotrione 105 g ai/ha): 14 | Grade 2 (classification and statistics of the grade of pesticide damage; number of plants) ([6]; mesotrione 105 g ai/ha): 2 | Grade 3 (classification and statistics of the grade of pesticide damage; number of plants) ([6]; mesotrione 105 g ai/ha): 0
